The source of these data is paper PMC10602139, “Architecture and rearrangements of a sperm-specific Na^+/H^+ exchanger” (Research Square, 2023).

The data set concerns the molecule itself. Put plainly: cryo-EM structure; single-particle cryo-EM of purified protein in digitonin micelles; pH 8 or pH 6, NaCl or KCl; WT also with 5 mM cAMP at pH 6; C2 symmetry imposed.

B1: sp9C1 R399A mutant, tag cleaved (cryo-EM sample) (natural protein, Strongylocentrotus purpuratus, UniProt A3RL54 30-1325, looked up)
chain: SSGGSGHTPTTQATHADDHDLTTHNGTEEHDDGHDDGHDDLHAHAPKVIVFISGSCLFGAISRSLFKKLPIPYTVVLLILGAILGVVASNVPLVEEHTRDVAHMDPHVLLQIFLPVLIFESAFAMDVHTFMRSFSQVCILALFGLVVASVLTAVLAMNLFNYNWNFSEAMMFGAIMSATDPVAVVALLKDLGASKQLGTIIEGESLLNDGCAIVIFNVFMKMVFFPQLTSTVGQNVLYFLQVAVAGPLWGYAVAKVTVFFLSHIFNDALVEITITLAATYLTYYIGDIWLEVSGVLAVVVLGLIVNAEKTSISPEVEVFLHRFWEMLAYLANTLIFMMVGVVVTQKALVAVDKMDWFYLIILYLAITIIAGMVISLFSPILSRIGYGLTWRNAVIMTWGGLRGAVGLALALVVENLAGNDVIGSKFLFHTAGIVVLTLVINATTIQTLLRILGMSDISIPKRLAMAGAVRRIHEGQNRTLNMLKSDRFLADADWDIATAACEISDPYSALSDDENAPADELTLGERKSVCPGCKAMVPNEPSPREFADMMEEARLRMLKAEKISYWKQFEHGMLAREALRLLVQHAEVAADEKDQFILVDDLKKSWQIKGIYPWLKRKLEDLISEKKIAAIPMPKYKLGKLMYKICHHMAFEVTINIAIVLNIVPIIMEFVVQDKMASVSTMAAPGSTVSSEPSSLQKIEDALRISNYVFFVIYAIEAIVKILGLGRHYIVSHWNKFDAFILVVALVDIIIAETLLKGSITINLSSIKVVKLFRLLRGLRMLRLTKALIPKLILVVNGKINNQLSLGYDVGKGYIIGEEEVGKIIDRMVDNKKILRELKHISETGRLQVVKELGLLQREHPGIAVSVKTRQAIRTILNHSRETIHELQGAGLLDEMEAHKLELTVEIKMKRLMNAPSSIPPPPPENLLKNVSWLAGDMKLIDFIKARASLLHFDYGEVIVREGDESDGLFLIVSGLVKLYGKSAFLDHDNPPVTAGSEENEVFEDYLTVGNVIGEMGVLTKKPRNATVTCETTVQVYFITAEDMNIAIDTFTLYPSLEYRLWRVVAIRIATPLIMEQMAFQGWTQEKVKLHLERGYLVDLAESHFQFNIDATLEDVILINGTAYNAHTREEIRSPCLISRTVHKLTFQYTATEEPRLFVVRNAEYNGPILDGRLDVDSKRSLISITEISSNMCLKHAAELRQKNSKVMLSRKSSGAAAKEEEDCIPNTSDVEQAAGVSPSVPTKTTPKPKSFLPSLGLSMSKERVNGEAVEESPVKTKQGEETPETEEGAAPRVNV
notes: SLC9C1, Strongylocentrotus purpuratus, full length with R399A; made in the background of the parent construct; source: HEK293F, transiently transfected; purified in digitonin (anti-GFP-nanobody resin, PreScission cleavage, gel filtration); not shown: mEGFP, C-terminal, cleaved; Twinstrep, C-terminal, cleaved
Consider B1, for which the binding result is “binds”.
